Test results published in US20210147507A1, “METHODS TO AUGMENT OR ALTER SIGNAL TRANSDUCTION” (Bellicum Pharmaceuticals, Inc., priority 2017, published 2021).

B1: N405Q (protein)
chain: GFGDVGALESLRGNADLAYILSMEPCGHCLIINNVNFCRESGLRTRTGSNIDCEKLRRRFSSLHFMVEVKGDLTAKKMVLALLELARQDHGALDCCVVVILSHGCQASHLQFPGAVYGTDGCPVSVEKIVNIFNGTSCPSLGGKPKLFFIQACGGEQKDHGFEVASTSPEDESPGSNPEPDATPFQEGLRTFDQLDAISSLPTPSDIFVSYSTFPGFVSWRDPKSGSWYVETLDDIFEQWAHSEDLQSLLLRVANAVSVKGIYKQMPGCFQFLRKKLFFKTSASRA
B2: D330G (protein)
chain: GFGDVGALESLRGNADLAYILSMEPCGHCLIINNVNFCRESGLRTRTGSNIDCEKLRRRFSSLHFMVEVKGDLTAKKMVLALLELARQDHGALDCCVVVILSHGCQASHLQFPGAVYGTDGCPVSVEKIVNIFNGTSCPSLGGKPKLFFIQACGGEQKDHGFEVASTSPEDESPGSNPEPDATPFQEGLRTFDQLGAISSLPTPSDIFVSYSTFPGFVSWRDPKSGSWYVETLDDIFEQWAHSEDLQSLLLRVANAVSVKGIYKQMPGCFNFLRKKLFFKTSASRA
B3: D330N (protein)
chain: GFGDVGALESLRGNADLAYILSMEPCGHCLIINNVNFCRESGLRTRTGSNIDCEKLRRRFSSLHFMVEVKGDLTAKKMVLALLELARQDHGALDCCVVVILSHGCQASHLQFPGAVYGTDGCPVSVEKIVNIFNGTSCPSLGGKPKLFFIQACGGEQKDHGFEVASTSPEDESPGSNPEPDATPFQEGLRTFDQLNAISSLPTPSDIFVSYSTFPGFVSWRDPKSGSWYVETLDDIFEQWAHSEDLQSLLLRVANAVSVKGIYKQMPGCFNFLRKKLFFKTSASRA
B4: D330S (protein)
chain: GFGDVGALESLRGNADLAYILSMEPCGHCLIINNVNFCRESGLRTRTGSNIDCEKLRRRFSSLHFMVEVKGDLTAKKMVLALLELARQDHGALDCCVVVILSHGCQASHLQFPGAVYGTDGCPVSVEKIVNIFNGTSCPSLGGKPKLFFIQACGGEQKDHGFEVASTSPEDESPGSNPEPDATPFQEGLRTFDQLSAISSLPTPSDIFVSYSTFPGFVSWRDPKSGSWYVETLDDIFEQWAHSEDLQSLLLRVANAVSVKGIYKQMPGCFNFLRKKLFFKTSASRA
B5: D330V (protein)
chain: GFGDVGALESLRGNADLAYILSMEPCGHCLIINNVNFCRESGLRTRTGSNIDCEKLRRRFSSLHFMVEVKGDLTAKKMVLALLELARQDHGALDCCVVVILSHGCQASHLQFPGAVYGTDGCPVSVEKIVNIFNGTSCPSLGGKPKLFFIQACGGEQKDHGFEVASTSPEDESPGSNPEPDATPFQEGLRTFDQLVAISSLPTPSDIFVSYSTFPGFVSWRDPKSGSWYVETLDDIFEQWAHSEDLQSLLLRVANAVSVKGIYKQMPGCFNFLRKKLFFKTSASRA
B6: L329E (protein)
chain: GFGDVGALESLRGNADLAYILSMEPCGHCLIINNVNFCRESGLRTRTGSNIDCEKLRRRFSSLHFMVEVKGDLTAKKMVLALLELARQDHGALDCCVVVILSHGCQASHLQFPGAVYGTDGCPVSVEKIVNIFNGTSCPSLGGKPKLFFIQACGGEQKDHGFEVASTSPEDESPGSNPEPDATPFQEGLRTFDQEDAISSLPTPSDIFVSYSTFPGFVSWRDPKSGSWYVETLDDIFEQWAHSEDLQSLLLRVANAVSVKGIYKQMPGCFNFLRKKLFFKTSASRA
B7: T317A (protein)
chain: GFGDVGALESLRGNADLAYILSMEPCGHCLIINNVNFCRESGLRTRTGSNIDCEKLRRRFSSLHFMVEVKGDLTAKKMVLALLELARQDHGALDCCVVVILSHGCQASHLQFPGAVYGTDGCPVSVEKIVNIFNGTSCPSLGGKPKLFFIQACGGEQKDHGFEVASTSPEDESPGSNPEPDAAPFQEGLRTFDQLDAISSLPTPSDIFVSYSTFPGFVSWRDPKSGSWYVETLDDIFEQWAHSEDLQSLLLRVANAVSVKGIYKQMPGCFNFLRKKLFFKTSASRA
B8: S183A (protein)
chain: GFGDVGALESLRGNADLAYILSMEPCGHCLIINNVNFCRESGLRTRTGANIDCEKLRRRFSSLHFMVEVKGDLTAKKMVLALLELARQDHGALDCCVVVILSHGCQASHLQFPGAVYGTDGCPVSVEKIVNIFNGTSCPSLGGKPKLFFIQACGGEQKDHGFEVASTSPEDESPGSNPEPDATPFQEGLRTFDQLDAISSLPTPSDIFVSYSTFPGFVSWRDPKSGSWYVETLDDIFEQWAHSEDLQSLLLRVANAVSVKGIYKQMPGCFNFLRKKLFFKTSASRA
B9: S195A (protein)
chain: GFGDVGALESLRGNADLAYILSMEPCGHCLIINNVNFCRESGLRTRTGSNIDCEKLRRRFASLHFMVEVKGDLTAKKMVLALLELARQDHGALDCCVVVILSHGCQASHLQFPGAVYGTDGCPVSVEKIVNIFNGTSCPSLGGKPKLFFIQACGGEQKDHGFEVASTSPEDESPGSNPEPDATPFQEGLRTFDQLDAISSLPTPSDIFVSYSTFPGFVSWRDPKSGSWYVETLDDIFEQWAHSEDLQSLLLRVANAVSVKGIYKQMPGCFNFLRKKLFFKTSASRA
B10: S196A (protein)
chain: GFGDVGALESLRGNADLAYILSMEPCGHCLIINNVNFCRESGLRTRTGSNIDCEKLRRRFSALHFMVEVKGDLTAKKMVLALLELARQDHGALDCCVVVILSHGCQASHLQFPGAVYGTDGCPVSVEKIVNIFNGTSCPSLGGKPKLFFIQACGGEQKDHGFEVASTSPEDESPGSNPEPDATPFQEGLRTFDQLDAISSLPTPSDIFVSYSTFPGFVSWRDPKSGSWYVETLDDIFEQWAHSEDLQSLLLRVANAVSVKGIYKQMPGCFNFLRKKLFFKTSASRA
B11: D330A-N405Q (protein)
chain: GFGDVGALESLRGNADLAYILSMEPCGHCLIINNVNFCRESGLRTRTGSNIDCEKLRRRFSSLHFMVEVKGDLTAKKMVLALLELARQDHGALDCCVVVILSHGCQASHLQFPGAVYGTDGCPVSVEKIVNIFNGTSCPSLGGKPKLFFIQACGGEQKDHGFEVASTSPEDESPGSNPEPDATPFQEGLRTFDQLAAISSLPTPSDIFVSYSTFPGFVSWRDPKSGSWYVETLDDIFEQWAHSEDLQSLLLRVANAVSVKGIYKQMPGCFQFLRKKLFFKTSASRA
B12: D330A-S144A (protein)
chain: GFGDVGALEALRGNADLAYILSMEPCGHCLIINNVNFCRESGLRTRTGSNIDCEKLRRRFSSLHFMVEVKGDLTAKKMVLALLELARQDHGALDCCVVVILSHGCQASHLQFPGAVYGTDGCPVSVEKIVNIFNGTSCPSLGGKPKLFFIQACGGEQKDHGFEVASTSPEDESPGSNPEPDATPFQEGLRTFDQLAAISSLPTPSDIFVSYSTFPGFVSWRDPKSGSWYVETLDDIFEQWAHSEDLQSLLLRVANAVSVKGIYKQMPGCFNFLRKKLFFKTSASRA

System: chimeric Caspase-9 polypeptide
Sequence (P62942 2-108 F37V limits assumed): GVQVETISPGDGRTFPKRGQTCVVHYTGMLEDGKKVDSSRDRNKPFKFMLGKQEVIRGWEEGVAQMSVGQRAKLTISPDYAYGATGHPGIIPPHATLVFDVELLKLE
Assay: Caspase-9 mutant classes and basal activity (Table 5)
Type: cell-based
Conditions: Caspase-9 mutant class; for Basal Activity: basal (ligand-independent) signaling compared with unmodified chimeric Caspase-9; for IC50: ligand IC50 compared with unmodified chimeric Caspase-9
Text: Even though homo-dimerization of wild-type initiator Caspase-9 is energetically unfavorable, making them mostly monomers in solution [14-16], the low-level inherent basal activity of unprocessed Caspase-9 [15, 17] is enhanced in the presence of the Apaf-1-based “apoptosome”, its natural allosteric regulator [6]. Moreover, supra-physiological expression levels and/or co-localization could lead to proximity-driven dimerization, further enhancing basal activation. The modified cells of the present application may comprise nucleic acids coding for a chimeric Caspase-9 polypeptide having lower basal signaling activity. Polynucleotides comprising Caspase-9 mutants with lower basal signaling may be expressed in the modified cells used for cell therapy herein. In these examples, the modified cells may include a safety switch, comprising a polynucleotide encoding a lower basal signaling chimeric Caspase-9 polypeptide. In the event of an adverse event following administration of the modified cells comprising the chimeric signaling polypeptides or chimeric antigen receptors herein, Caspase-9 activity may be induced by administering the dimerizer to the patient, thus inducing apoptosis and clearance of some, or all of the modified cells. In some examples, the amount of dimerizer administered may be determined as an amount designed to remove the highest amount, at least 80% or 90% of the modified cells. In other examples, the amount of dimerizer administered may be determined as an amount designed to remove only a portion of the modified cells, in order to alleviate negative symptoms or conditions, while leaving a sufficient amount of therapeutic modified cells in the patient, in order to continue therapy. Methods for using chimeric Caspase-9 polypeptides to induce apoptosis are discussed in PCT Application Number PCT/US2011/037381 by Malcolm K. Brenner et al., titled Methods for Inducing Selective Apoptosis, filed May 20, 2011, and in U.S. patent application Ser. No. 13/112,739 by Malcolm K. Brenner et al., titled Methods for Inducing Selective Apoptosis, filed May 20, 2011, issued Jul. 28, 2015 as U.S. Pat. No. 9,089,520. Chimeric caspase polypeptides having modified basal activity are discussed in PCT Application Serial Number PCT/US2014/022004 by David Spencer et al., titled Modified Caspase Polypeptides and Uses Thereof, filed Mar. 7, 2014, published Oct. 9, 2014 as WO2014/164348, and in U.S. patent application Ser. No. 13/792,135 by David Spencer et al., titled Modified Caspase Polypeptides and Uses Thereof, filed Mar. 7, 2014; and in U.S. patent application Ser. No. 14/640,553 by Spencer et al., filed Mar. 6, 2015. Methods for inducing partial apoptosis of the therapeutic modified cells are discussed in PCT Application Number PCT/US14/040964 by Kevin Slawin et al., titled Methods for Inducing Partial Apoptosis Using Caspase Polypeptides, filed Jun. 4, 2014, published Dec. 11, 2014 as WO2014/197638, and in U.S. patent application Ser. No. 14/296,404 by Kevin Slawin et al., titled Methods for Inducing Partial Apoptosis Using Caspase Polypeptides, filed Jun. 4, 2014. These patent applications and publications are all incorporated by reference herein in their entireties.

Row | Basal Activity | IC50 | Molecule
1 | Decreased | higher IC50 | B1
2 | Decreased | higher IC50 | B2
3 | Decreased | higher IC50 | B3
4 | Decreased | higher IC50 | B4
5 | Decreased | higher IC50 | B5
6 | Decreased | higher IC50 | B6
7 | Decreased | higher IC50 | B7
8 | Decreased | higher IC50 | B8
9 | Decreased | higher IC50 | B9
10 | Decreased | higher IC50 | B10
11 | Decreased | higher IC50 | B11
12 | Decreased | higher IC50 | B12
